Publication PMC8476742, “Mapping Potential Determinants of Peroxidative Activity in an Evolved Fungal Peroxygenase from Agrocybe aegerita” (Frontiers in Bioengineering and Biotechnology, 2021)

Assays:
Assay in all cases: purified protein
Assay type in all cases: biochemical, Cyclocybe aegerita
purified protein [1] = substrate: O=[N+]([O-])c1ccc2c(c1)OCO2; conditions: 1 mM H2O2, 100 mM potassium phosphate pH 7.0, 15% acetonitrile
purified protein [2] = substrate: CCn1c(=NN=c2sc3cc(S(=O)(=O)O)ccc3n2CC)sc2cc(S(=O)(=O)O)ccc21
purified protein [3] = substrate: COc1ccc(CO)cc1OC; conditions: 2 mM H2O2, 100 mM potassium phosphate pH 7.0, clone 23
[4] = 2 mM H2O2, 100 mM sodium phosphate-citrate pH 3.0, clone 8
[5] = 2 mM H2O2, 100 mM sodium phosphate-citrate pH 3.0, clone 23

B1: PaDa-I (Cyclocybe aegerita; A359H/A360H/F354L/G361I/I291V/L110F/V100A/V118I) (protein)
chain: EPGLPPGPLENSSAKLVNDEAHPWKPLRPGDIRGPCPGLNTLASHGYLPRNGVATPAQIINAVQEGFNFDNQAAIFATYAAHLVDGNLITDLLSIGRKTRLTGPDPPPPASVGGLNEHGTFEGDASMTRGDAFFGNNHDFNETLFEQLVDYSNRFGGGKYNLTVAGELRFKRIQDSIATNPNFSFVDFRFFTAYGETTFPANLFVDGRRDDGQLDMDAARSFFQFSRMPDDFFRAPSPRSGTGVEVVVQAHPMQPGRNVGKINSYTVDPTSSDFSTPCLMYEKFVNITVKSLYPNPTVQLRKALNTNLDFLFQGVHHICTQVFPYGRD
notes: evolved secretion variant, mature secreted enzyme; signal peptide mutations F12Y, A14V, R15G, A21D; expressed in Saccharomyces cerevisiae BJ5464, purified by ion exchange, no tag mentioned; heme-thiolate
B1 showed a Km (purified protein [1]; clone 8) of 437 ± 53 µM, a kcat (purified protein [1]; clone 8) of 368 ± 19 s⁻¹ and a kcat/Km (purified protein [1]; clone 8) of 842000 ± 111000 M⁻¹ s⁻¹. It also gave a Km (purified protein [2]; [4]) of 14 ± 2.4 µM, a kcat (purified protein [2]; [4]) of 239 ± 13 s⁻¹ and a kcat/Km (purified protein [2]; [4]) of 1.68e+07 ± 3.03e+06 M⁻¹ s⁻¹.

B2: PaDa-I (Cyclocybe aegerita; A359S/A360N/F354L/G361L/I291V/L110F/V100A/V118I/V358L) (protein)
chain: EPGLPPGPLENSSAKLVNDEAHPWKPLRPGDIRGPCPGLNTLASHGYLPRNGVATPAQIINAVQEGFNFDNQAAIFATYAAHLVDGNLITDLLSIGRKTRLTGPDPPPPASVGGLNEHGTFEGDASMTRGDAFFGNNHDFNETLFEQLVDYSNRFGGGKYNLTVAGELRFKRIQDSIATNPNFSFVDFRFFTAYGETTFPANLFVDGRRDDGQLDMDAARSFFQFSRMPDDFFRAPSPRSGTGVEVVVQAHPMQPGRNVGKINSYTVDPTSSDFSTPCLMYEKFVNITVKSLYPNPTVQLRKALNTNLDFLFQGLSNLCTQVFPYGRD
notes: as for B1
B2 showed a Km (purified protein [1]; clone 23) of 376 ± 40 µM, a kcat (purified protein [1]; clone 23) of 367 ± 16 s⁻¹ and a kcat/Km (purified protein [1]; clone 23) of 976000 ± 112000 M⁻¹ s⁻¹. It also gave a Km (purified protein [2]; [5]) of 15 ± 2 µM, a kcat (purified protein [2]; [5]) of 250 ± 11 s⁻¹ and a kcat/Km (purified protein [2]; [5]) of 1.67e+07 ± 2.34e+06 M⁻¹ s⁻¹. The Km (purified protein [3]) was 4920 ± 450 µM, the kcat (purified protein [3]) was 151 ± 4 s⁻¹ and the kcat/Km (purified protein [3]) was 31000 ± 3000 M⁻¹ s⁻¹.
